Reference: patent US20170298096A1 (CANIMGUIDE THERAPEUTICS, published 2017)
No end group written: not given here.

T1: His-tagged P3028 (human, also: His-tag, terminus and sequence not given here)
T1 construct: used in solution in the PEPSCAN (rampo) ELISA; also called PGE73; His-tag-P3028; not shown: His tag
T1 peptide: VFDEFKPLVEEPQNLIK


Biological target: T1, His-tagged P3028
Experiment: PEPSCAN ELISA (rampo)
Experimental: After washing, the peroxidase substrate 2,2′-azine-di-3-ethylbenzthiazoline sulfonate (ABTS) and 2 μL of 3% H2O2 were added. The binding capacity of the mAb was measured as a color development at 405 nm (optical density, OD405). The color development was quantified with a charge-coupled device (CCD)—camera and an image processing system.
The OD405-values obtained by a CCD-camera was considered as raw data values (“rampo values,” “rampo units,” or “rampo scores”). […] First the CCD-camera made a picture of the card before peroxidase coloring and then again a picture after the peroxidase coloring. […] These values were copied into an excel file and labeled as a raw data file. One follow-up manipulation was allowed. Sometimes a well can contain an air-bubble resulting in a false-positive value. If manual inspection of the cards detect an air-bubble the value are set to 0 for that well.

Row | Binder | rampo score relative to the P28R control sample | RAMPO Score [rampo units]
1 | KKLVTFFVKLSLFTER [SEQ ID NO 301] | ≥ 98 % of P28R control | 
2 | KKLDTFFRKLSLFTER (also called P28R with R at position 8) [SEQ ID NO 330] | ≥ 98 % of P28R control | ≥ 302
3 | KKLDTFTVKLSLFTER [SEQ ID NO 324] | ≥ 98 % of P28R control | 
4 | KKLWTFFVKLSLFTER [SEQ ID NO 302] | ≥ 98 % of P28R control | 
5 | KKLDYFFVKLSLFTER [SEQ ID NO 312] | ≥ 98 % of P28R control | 
6 | KKLDSFFVKLSLFTER [SEQ ID NO 310] | ≥ 98 % of P28R control | 
7 | KKLDTFVVKLSLFTER [SEQ ID NO 325] | ≥ 98 % of P28R control | 
8 | KKLDCFFVKLSLFTER [SEQ ID NO 304] | ≥ 98 % of P28R control | 
9 | KKLDTFFVKASLFTER [SEQ ID NO 332] | ≥ 98 % of P28R control | 
10 | KKLDTPFVKLSLFTER [SEQ ID NO 317] | ≥ 98 % of P28R control | 
11 | KKLDTFMVKLSLFTER [SEQ ID NO 321] | ≥ 98 % of P28R control | 
12 | KKLDTFQVKLSLFTER [SEQ ID NO 322] | ≥ 98 % of P28R control | 
13 | KKLDTFFLKLSLFTER (also called P28R with L at position 8) [SEQ ID NO 328] | ≥ 98 % of P28R control | ≥ 302
14 | KKLDTFFVKGSLFTER [SEQ ID NO 334] | ≥ 98 % of P28R control | 
15 | KKLDPFFVKLSLFTER [SEQ ID NO 307] | ≥ 98 % of P28R control | 
16 | KKLDTTFVKLSLFTER [SEQ ID NO 318] | ≥ 98 % of P28R control | 
17 | KKLDMFFVKLSLFTER [SEQ ID NO 305] | ≥ 98 % of P28R control | 
18 | KKLDTFFVKPSLFTER [SEQ ID NO 338] | ≥ 98 % of P28R control | 
19 | KKLDTIFVKLSLFTER [SEQ ID NO 314] | ≥ 98 % of P28R control | 
20 | KKLDTFFVKRSLFTER [SEQ ID NO 340] | ≥ 98 % of P28R control | 
21 | KKLDWFFVKLSLFTER [SEQ ID NO 311] | ≥ 98 % of P28R control | 

Row | Binder | rampo score relative to the P28R control sample | RAMPO Score [rampo units]
22 | KKLDTAFVKLSLFTER [SEQ ID NO 313] | ≥ 98 % of P28R control | 
23 | KKLDTFFVKTSLFTER [SEQ ID NO 342] | ≥ 98 % of P28R control | 
24 | KKLDTFFFKLSLFTER (also called P28R with F at position 8) [SEQ ID NO 326] | ≥ 98 % of P28R control | ≥ 302
25 | KKLDTFLVKLSLFTER [SEQ ID NO 320] | ≥ 98 % of P28R control | 
26 | KKLYTFFVKLSLFTER [SEQ ID NO 303] | ≥ 98 % of P28R control | 
27 | KKLDTFFVRLSLFTER [SEQ ID NO 331] | ≥ 98 % of P28R control | 
28 | KKLDTVFVKLSLFTER [SEQ ID NO 319] | ≥ 98 % of P28R control | 
29 | KKLDTFFVKFSLFTER [SEQ ID NO 333] | ≥ 98 % of P28R control | 
30 | KKLDTFFVKMSLFTER [SEQ ID NO 336] | ≥ 98 % of P28R control | 
31 | KKLDTFFPKLSLFTER (also called P28R with P at position 8) [SEQ ID NO 329] | ≥ 98 % of P28R control | ≥ 302
32 | KKLDTFSVKLSLFTER [SEQ ID NO 323] | ≥ 98 % of P28R control | 
33 | KKLDNFFVKLSLFTER [SEQ ID NO 306] | ≥ 98 % of P28R control | 
34 | KKLDTFFVKQSLFTER [SEQ ID NO 339] | ≥ 98 % of P28R control | 
35 | KKLDTFFVKSSLFTER [SEQ ID NO 341] | ≥ 98 % of P28R control | 
36 | KKLDTFFVKNSLFTER [SEQ ID NO 337] | ≥ 98 % of P28R control | 
37 | KKLDTMFVKLSLFTER [SEQ ID NO 315] | ≥ 98 % of P28R control | 
38 | KKLDQFFVKLSLFTER [SEQ ID NO 308] | ≥ 98 % of P28R control | 
39 | KKLDTNFVKLSLFTER [SEQ ID NO 316] | ≥ 98 % of P28R control | 
40 | KKLDTFFGKLSLFTER (also called P28R with G at position 8) [SEQ ID NO 327] | ≥ 98 % of P28R control | ≥ 302
41 | KKLDRFFVKLSLFTER [SEQ ID NO 309] | ≥ 98 % of P28R control | 
42 | KKLDTFFVKISLFTER [SEQ ID NO 335] | ≥ 98 % of P28R control | 

Other lines, results leading:

Row | rampo score relative to the P28R control sample | RAMPO Score [rampo units] | Binder
43 | ≥ 98 % of P28R control |  | KKLDTFFVKLSLCTER [SEQ ID NO 362]
44 | ≥ 98 % of P28R control |  | KKLDTFFVKLSLATER [SEQ ID NO 361]
45 | ≥ 98 % of P28R control |  | KKLDTFFVKLSMFTER [SEQ ID NO 353]
46 | ≥ 98 % of P28R control |  | KKLDTFFVKLSIFTER [SEQ ID NO 352]
47 | ≥ 98 % of P28R control |  | KKLDTFFVKLSRFTER [SEQ ID NO 356]
48 | ≥ 98 % of P28R control |  | KKLDTFFVKLHLFTER [SEQ ID NO 345]
49 | ≥ 98 % of P28R control |  | KKLDTFFVKLSVFTER [SEQ ID NO 359]
50 | ≥ 98 % of P28R control |  | KKLDTFFVKLSLHTER [SEQ ID NO 364]
51 | ≥ 98 % of P28R control |  | KKLDTFFVKLQLFTER [SEQ ID NO 348]
52 | ≥ 98 % of P28R control |  | KKLDTFFVKLSSFTER [SEQ ID NO 357]
53 | ≥ 98 % of P28R control |  | KKLDTFFVKLSNFTER [SEQ ID NO 354]
54 | ≥ 98 % of P28R control |  | KKLDTFFVKLSAFTER [SEQ ID NO 350]
55 | ≥ 98 % of P28R control |  | KKLDTFFVKLMLFTER [SEQ ID NO 346]
56 | ≥ 98 % of P28R control |  | KKLDTFFVKYSLFTER [SEQ ID NO 344]
57 | ≥ 98 % of P28R control |  | KKLDTFFVKVSLFTER [SEQ ID NO 343]
58 | ≥ 98 % of P28R control |  | KKLDTFFVKLSHFTER [SEQ ID NO 351]
59 | ≥ 98 % of P28R control |  | KKLDTFFVKLSWFTER [SEQ ID NO 360]
60 | ≥ 98 % of P28R control |  | KKLDTFFVKLSTFTER [SEQ ID NO 358]
61 | ≥ 98 % of P28R control |  | KKLDTFFVKLSLGTER [SEQ ID NO 363]
62 | ≥ 98 % of P28R control |  | KKLDTFFVKLTLFTER [SEQ ID NO 349]
63 | ≥ 98 % of P28R control |  | KKLDTFFVKLNLFTER [SEQ ID NO 347]
64 | ≥ 98 % of P28R control |  | KKLDTFFVKLSQFTER [SEQ ID NO 355]
